Measurements published in FireProtDB (doi:10.1002/prot.340080106).

B1: Protein S100-G, P02633 (parent)
chain: MSAKKSPEELKGIFEKYAAKEGDPNQLSKEELKLLLQTEFPSLLKGPSTLDELFEELDKNGDGEVSFEEFQVLVKKISQ

Variants of: B1
Details: Bos taurus; pH 7; 25 °C; Urea; CD; PIPES-KOH 20 mM; reversible: yes; structure 1IGV; whole UniProt chain shown

Variant	ddG of mutation (higher = less stable) [kcal/mol]	denaturant midpoint (higher = more stable) [M]	unfolding free energy [kcal/mol]
E21Q D23N E30Q	-0.93	6.1	1.22
E21Q	-0.38	5.6	0.67
E21Q D23N	-1.19	6.2	1.48
D23N E30Q	-0.52	5.8	0.81
